Data taken from paper PMC10433458 (Proceedings of the National Academy of Sciences of the …, 2023).
Read-outs that look alike come from different tables or passages of the source.

B1: phosphoribulokinase of A. thaliana (enzyme, A. thaliana (endogenous in leaves), UniProt P25697 47-395, looked up)
chain: AQETIVIGLAADSGCGKSTFMRRLTSVFGGAAKPPKGGNPDSNTLISDTTTVICLDDYHSLDRYGRKEQKVTALDPRANDFDLMYEQVKALKNGIAVEKPIYNHVTGLLDPPELIQPPKILVIEGLHPMFDERVRDLLDFSIYLDISNEVKFAWKIQRDMAERGHSLESIKASIEARKPDFDAFIDPQKQYADAVIEVLPTTLIPDDNEGKVLRVRLIMKEGVKYFSPVYLFDEGSTISWIPCGRKLTCSYPGIKFNYEPDSYFDHEVSVLEMDGQFDRLDELIYVESHLSNLSTKFYGEVTQQMLKHADFPGSNNGTGLFQTIVGLKIRDLYEQLIANKATARAEAKA
B2: phosphoribulokinase of C. reinhardtii (enzyme, UniProt P19824 32-375, looked up)
chain: DKDKTVVIGLAADSGCGKSTFMRRMTSIFGGVPKPPAGGNPDSNTLISDMTTVICLDDYHCLDRNGRKVKGVTALAPEAQNFDLMYNQVKALKEGKSVDKPIYNHVSGLIDAPEKIESPPILVIEGLHPFYDKRVAELLDFKIYLDISDDIKFAWKIQRDMAERGHSLESIKSSIAARKPDFDAYIDPQKKDADMIIQVLPTQLVPDDKGQYLRVRLIMKEGSKMFDPVYLFDEGSTISWIPCGRKLTCSFPGIKMFYGPDTWYGQEVSVLEMDGQFDKLEELIYVESHLSNTSAKFYGEITQQMLKNSGFPGSNNGTGLFQTIVGLKVREVYERIVKKDVVPV

Tests used:
SEC [1] = target: the molecule itself; assay: SEC
SEC [2] = target: the molecule itself; assay: SEC; remark: listed apart in the source

Row | Protein | stoichiometry N (SEC [1]) | stoichiometry N (SEC [2])
1 | B1 | 2 | –
2 | B2 | – | 2
